The values that follow come from patent US20210147564A1 (published 2021).

To fix the notation:
T1: human BCMA ECD protein (Abcam ab50089) (human, UniProt Q02223 1-54)
T1 chain: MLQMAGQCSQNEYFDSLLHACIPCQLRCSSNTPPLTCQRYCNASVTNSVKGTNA

B1: heavy chain-only anti-BCMA antibody (UniAb) with the heavy chain variable region of SEQ ID NO: 12 (antibody, V domains shown)
VH: QVQLVESGGGLVQPGGSLRLSCAASGFTFTNHAMSWVRQAPGKGLELVSSISGNGRTTYYADSVKGRFTISRDISKNTLDLQMNSLRAEDTAVYYCAKDGGETLVDSRGQGTLVTVSS
B2: heavy chain-only anti-BCMA antibody (UniAb) with the heavy chain variable region of SEQ ID NO: 15 (antibody, V domains shown)
VH: EVQLLESGGGLVQPGGSLRLSCAASGFTFSSYAMSWVRQAPGKGLEWVSSISGSGDYIYYADSVKGRFTISRDISKNTLYLQMNSLRAEDTAVYYCAKEGTGANSSLADYRGQGTLVTVSS
B3: heavy chain-only anti-BCMA antibody (UniAb) with the heavy chain variable region of SEQ ID NO: 13 (antibody, V domains shown)
VH: QVQLVESGGGLVQPGGSLRLSCAASGFTFSSHAMTWVRQAPGKGLEWVAAISGSGDFTHYADSVKGRFTISRDNSKNTVSLQMNNLRAEDTAVYYCAKDEDGGSLLGYRGQGTLVTVSS

Sequence of BCMA protein of Cynomolgus macaque (A0A2K5UD97 entry or part of it): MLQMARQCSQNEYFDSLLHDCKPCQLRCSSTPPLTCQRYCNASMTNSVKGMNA

One assay concerns the target T1, human BCMA ECD protein (Abcam ab50089). Kind of assay: Octet off-rate. In general terms: BLI is a label-free optical method that tracks binding on a fibre tip over time.
B1 had a dissociation rate constant (koff) of less than 1e-07 s⁻¹.
The same measure, in the same setting: under B2 stands less than 1e-07 s⁻¹; under B3, less than 1e-07 s⁻¹.

The next assay has as its target BCMA protein of Cynomolgus macaque (Cynomolgus macaque, UniProt A0A2K5UD97 1-53). Kind of assay: Octet off-rate.
Turning to B1, the koff was found to be 0.000941 s⁻¹.
For the molecule B2, the koff came out at 0.000322 s⁻¹.
On the same count and under the same terms, under B3 stands 0.00189 s⁻¹.

The term koff denotes the first-order rate constant of dissociation.
